B1: SLMAP CC1 (residues 167–226) (domain or fragment, human, UniProt Q14BN4 167-226, looked up)
chain: QLSQYLQEALHREQMLEQKLATLQRLLAITQEASDTSWQALIDEDRLLSRLEVMGNQLQA
notes: Homodimer within the 2:2 crystal complex; source: E. coli BL21 (DE3) CodonPlus, purified
B2: FHA domain (residues 5–135) of SLMAP (domain or fragment, human, UniProt Q14BN4 5-135, looked up)
chain: LAIFTCRPNSHPFQERHVYLDEPIKIGRSVARCRPAQNNATFDCKVLSRNHALVWFDHKTGKFYLQDTKSSNGTFINSQRLSRGSEESPPCEILSGDIIQFGVDVTENTRKVTHGCIVSTIKLFLPDGMEA
notes: also called SLMAP (FHA); SLMAP FHA domain; source: E. coli BL21 (DE3) CodonPlus, purified

How the values were obtained:
[1] = molecular target: T1, SIKE1 CC1 (residues 5–65) (human, UniProt Q9BRV8 5-65); assay: not stated; Kd of the minimal regions, Supplementary Fig. S7c; method not given; conditions: both partners purified
T1 construct: SIKE1, human, residues 5-65; Homodimer within the 2:2 crystal complex; also called residues 5–65 of SIKE1; source: E. coli BL21 (DE3) CodonPlus, purified
T1 sequence (looked up): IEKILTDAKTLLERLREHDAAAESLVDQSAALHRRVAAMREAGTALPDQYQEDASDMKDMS

[2] = molecular target: T1, SIKE1 CC1 (residues 5–65); assay: crystal structure; SIKE1 CC1-SLMAP CC1 complex reconstituted 1:1 and gel-filtered, 2.3 Å; 0.1 M sodium citrate (pH 5.5), 15% PEG 6000, 16 °C; conditions: both partners purified
[3] = molecular target: the molecule itself; assay: as above
[4] = molecular target: T2, MST4 kinase domain (residues 1–300) (human, UniProt Q9P289 1-300); assay: pull-down; pulldown with purified recombinant proteins shown in supplementary figures; whether GST or MBP and who carried the tag not told; conditions: both partners purified
T2 construct: MST4 (STK26), human, residues 1-300; also called N-terminal kinase domain of MST4; source: E. coli BL21 (DE3) CodonPlus, purified
T2 sequence (Q9P289 1-300): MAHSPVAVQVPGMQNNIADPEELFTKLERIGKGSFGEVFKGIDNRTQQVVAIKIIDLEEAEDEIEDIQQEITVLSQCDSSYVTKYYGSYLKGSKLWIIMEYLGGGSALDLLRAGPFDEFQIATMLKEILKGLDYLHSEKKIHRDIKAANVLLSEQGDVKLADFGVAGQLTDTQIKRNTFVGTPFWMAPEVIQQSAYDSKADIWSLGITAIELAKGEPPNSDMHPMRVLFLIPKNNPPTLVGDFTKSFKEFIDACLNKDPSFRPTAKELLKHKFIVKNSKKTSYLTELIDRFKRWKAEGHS

MST4 (recombinant) = molecular target: T3, MST4 (recombinant) (human, UniProt Q9P289 1-416); assay: as above; conditions: both partners purified
T3 construct: MST4 (STK26), human; also called STK26; source: E. coli BL21 (DE3) CodonPlus, purified
T3 sequence (Q9P289 whole entry): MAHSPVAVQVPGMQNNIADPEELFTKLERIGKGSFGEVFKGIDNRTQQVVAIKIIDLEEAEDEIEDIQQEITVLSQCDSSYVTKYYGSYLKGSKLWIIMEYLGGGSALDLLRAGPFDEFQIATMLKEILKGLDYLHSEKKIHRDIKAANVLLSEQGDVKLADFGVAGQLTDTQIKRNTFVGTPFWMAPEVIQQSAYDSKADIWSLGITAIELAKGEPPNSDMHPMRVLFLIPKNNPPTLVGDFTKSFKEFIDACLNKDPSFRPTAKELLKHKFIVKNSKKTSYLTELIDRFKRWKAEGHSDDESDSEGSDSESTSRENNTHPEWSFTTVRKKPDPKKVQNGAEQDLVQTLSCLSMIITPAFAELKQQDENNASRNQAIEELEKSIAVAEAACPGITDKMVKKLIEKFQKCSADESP

[5] = molecular target: T4, MST2 (recombinant, wildtype) (human, UniProt Q13188 1-491); assay: as above; conditions: both partners purified
T4 construct: MST2 (STK3), human; also called STK3; Hippo kinase MST2; source: E. coli BL21 (DE3) CodonPlus, purified
T4 sequence (looked up): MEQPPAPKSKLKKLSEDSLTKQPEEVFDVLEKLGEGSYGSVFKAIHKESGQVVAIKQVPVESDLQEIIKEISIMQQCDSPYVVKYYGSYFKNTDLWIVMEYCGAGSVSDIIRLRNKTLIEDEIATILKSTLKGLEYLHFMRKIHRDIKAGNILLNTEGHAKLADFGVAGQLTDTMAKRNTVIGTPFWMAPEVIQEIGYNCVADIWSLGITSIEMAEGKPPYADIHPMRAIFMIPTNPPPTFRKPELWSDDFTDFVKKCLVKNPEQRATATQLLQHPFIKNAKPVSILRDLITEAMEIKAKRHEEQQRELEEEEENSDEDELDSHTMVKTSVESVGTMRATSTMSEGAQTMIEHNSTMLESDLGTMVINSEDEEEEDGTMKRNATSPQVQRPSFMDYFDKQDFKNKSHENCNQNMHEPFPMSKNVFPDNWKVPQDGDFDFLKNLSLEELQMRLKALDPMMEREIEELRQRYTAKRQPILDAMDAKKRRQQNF

[6] = molecular target: T5, MST2 kinase domain (residues 1–308) (human, UniProt Q13188 1-308); assay: pull-down; GST pulldown: GST-tagged protein, partner and glutathione Sepharose mixed at 4 °C for 1 h in 20 mM HEPES (pH 7.5), 100 mM NaCl; eluted with 20 mM reduced glutathione; SDS-PAGE, Coomassie staining; conditions: both partners purified
T5 construct: also called kinase domain of MST2; source: E. coli BL21 (DE3) CodonPlus, purified
T5 sequence (looked up): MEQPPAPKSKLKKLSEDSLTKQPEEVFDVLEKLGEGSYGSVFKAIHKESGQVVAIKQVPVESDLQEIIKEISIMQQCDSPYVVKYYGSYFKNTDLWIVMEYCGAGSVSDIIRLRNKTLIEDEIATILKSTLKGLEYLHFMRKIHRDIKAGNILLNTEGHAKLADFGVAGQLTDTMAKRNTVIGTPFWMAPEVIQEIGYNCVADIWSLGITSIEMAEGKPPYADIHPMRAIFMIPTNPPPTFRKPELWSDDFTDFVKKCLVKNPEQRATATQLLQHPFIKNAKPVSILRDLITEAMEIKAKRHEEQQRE

| Binder | Kd [1] [µM] | stoichiometry N [2] | stoichiometry N [3] | binding result [4] | binding result (MST4 (recombinant)) | binding result [5] | binding result [6] |
| --- | --- | --- | --- | --- | --- | --- | --- |
| B1 | 6.9 | 1 SIKE1 CC1 per SLMAP CC1 (2:2) | 2 |  |  |  |  |
| B2 |  |  |  | binds | binds | binds | binds |

— PMC6323126, “Architecture, substructures, and dynamic assembly of STRIPAK complexes in Hippo signaling” (Cell Discovery, 2019)
